B1: Azoarcus group I ribozyme (parent)
chain: GUGCCUUGCGCCGGGAAACCACGCAAGGGAUGGUGUCAAAUUCGGCGAAACCUAAGCGCCCGCCCGGGCGUAUGGCAACGCCGAGCCAAGCUUCGGCGCCUGCGCCGAUGAAGGUGUAGAGACUAGACGGCACCCACCUAAGGCAAACGCUAUGGUGAAGGCAUAGUCCAGGGAGUGGCGAAAGUCACACAAACCGG

Variants of: B1
Experiment: reverse-splicing fitness (ratio to wild type); higher = more active; in vitro selection; Mg2+ level not given
Method in brief: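 An in vitro group I ribozyme library with randomized positions was T7-transcribed and gel-purified. In triplicate, 10 pmol RNA in EPPS pH 7.5 was reacted with 50 pmoles of a 30-nt RNA substrate for 1 h at 37 °C across several added MgCl2 levels (1–48 mM), then stopped with EDTA. Products were reverse transcribed from a substrate-complementary primer, PCR-amplified and sequenced (HiSeq 4000). Fitness is a variant's read proportion after selection over that before, normalised to wild type.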

Row | Variant | reverse-splicing fitness
1 | A111G A120G C150G U176G | 0.00356
2 | A111G A120G C150G U176A | 0.011
3 | A111G A120G C150G U176C | 0.0173
4 | A111G A120G C150U C169A U176G | 0.00588
5 | A111G A120G C150U C169A U176A | 0.0291
6 | A111G A120G C150U C169A U176C | 0.0419
7 | A111G A120G A145U C150A C169A U176A | 0.0157
8 | A111G A120G A145U C150A C169A U176G | 0.00504
9 | A111G A120G A145U C150A C169A U176C | 0.015
10 | A111G A120G A145U C169U | 0.232
11 | A111G A120G A145U C169A | 0.174
12 | A111G A120G A145U C169G | 0.33
13 | A111G A120G C169G U176G | 0.00692
14 | A111G A120G C169G U176C | 0.119
15 | A111G A120G C169G U176A | 0.09
16 | A111G A120G | 0.3
17 | A111G A120U | 0.785
18 | A111G A120G A145U C150U C169A U176C | 0.0426
19 | A111G A120G A145U C150U C169A U176A | 0.0314
20 | A111G A120G A145U C150U C169A U176G | 0.00532
21 | A111G A120G A145C C150A C169G U176G | 0.00542

Row | Variant | reverse-splicing fitness
22 | A111G A120G A145C C150A C169G U176C | 0.0168
23 | A111G A120G A145C C150A C169G U176A | 0.0264
24 | A111G A120G A145U C150U C169U U176A | 0.0647
25 | A111G A120G A145U C150U C169U U176G | 0.00675
26 | A111G A120G A145U C150U C169U U176C | 0.0675
27 | A111G A120G A145U C150A U176G | 0.00541
28 | A111G A120G A145U C150A U176A | 0.0179
29 | A111G A120G A145U C150A U176C | 0.0234
30 | A111G A120G A145G U176C | 0.12
31 | A111G A120G A145G U176G | 0.00937
32 | A111G A120G A145G U176A | 0.0808
33 | A111G A120G C150G C169G U176G | 0.00386
34 | A111G A120G C150G C169G U176C | 0.00503
35 | A111G A120G C150G C169G U176A | 0.0075
36 | A111G A120G C150U | 0.156
37 | A111G A120G C150A | 0.0324
38 | A111G A120G C150G | 0.0248
39 | A111G A120G C169A U176A | 0.0455
40 | A111G A120G C169A U176G | 0.00449
41 | A111G A120G C169A U176C | 0.0737
42 | A111G A120C C150U C169G U176G | 0.00459

Row | Variant | reverse-splicing fitness
43 | A111G A120C C150U C169G U176A | 0.0207
44 | A111G A120C C150U C169G U176C | 0.0169
45 | A111G A120G C150G C169A | 0.0164
46 | A111G A120G C150G C169U | 0.0264
47 | A111G A120G C150G C169G | 0.0259
48 | A111G A120G A145C C150U C169U | 0.0714
49 | A111G A120G A145C C150U C169G | 0.088
50 | A111G A120G A145C C150U C169A | 0.0431
51 | A111G A120G A145C C150U U176C | 0.038
52 | A111G A120G A145C C150U U176G | 0.00705
53 | A111G A120G A145C C150U U176A | 0.0317
54 | A111G A120G A145C C150A | 0.0175
55 | A111G A120G A145C C150G | 0.036
56 | A111G A120G A145C C150U | 0.0745
57 | A111G A120G A145C C150A U176A | 0.0131
58 | A111G A120G A145C C150A U176G | 0.00495
59 | A111G A120G A145C C150A U176C | 0.0131
60 | A111G A120G A145G C150U C169G | 0.255
61 | A111G A120G A145G C150U C169U | 0.2
62 | A111G A120G A145G C150U C169A | 0.131
63 | A111G A120C C150U U176C | 0.337

Row | Variant | reverse-splicing fitness
64 | A111G A120C C150U U176G | 0.0682
65 | A111G A120C C150U U176A | 0.314
66 | A111G A120C C150U C169U U176A | 0.0417
67 | A111G A120C C150U C169U U176C | 0.0445
68 | A111G A120C C150U C169U U176G | 0.00603
69 | A111G A120U A145C C150G C169G | 0.0104
70 | A111G A120U A145C C150G C169U | 0.014
71 | A111G A120U A145C C150G C169A | 0.00293
72 | A111G A120C C150U C169U | 0.161
73 | A111G A120C C150U C169A | 0.012
74 | A111G A120C C150U C169G | 0.0131
75 | A111G A120G A145G C150U C169G U176A | 0.0549
76 | A111G A120G A145G C150U C169G U176C | 0.078
77 | A111G A120G A145G C150U C169G U176G | 0.00563
78 | A111G A120G A145U C169U U176G | 0.0103
79 | A111G A120G A145U C169U U176A | 0.0839
80 | A111G A120G A145U C169U U176C | 0.093
81 | A111G A120C C150G C169U U176G | 0.0044
82 | A111G A120C C150G C169U U176A | 0.00767
83 | A111G A120C C150G C169U U176C | 0.0152
